For one substance, Kd results are on record in paper PMC8440498.

In this assay the target is Aβ1-40 (human). Kind of assay: ELISA.

By Kd is commonly meant the constant that tells how readily two partners part at equilibrium. Low values mean a tighter complex, high ones a looser complex.

The substance “clusterin (human plasma apolipoprotein J) (from UniProt P10909 23-227; P10909 228-449) (natural protein)” returned a Kd of 2 nM.
